Columns and labels:
[1] = biological target: T1, human LAG-3 on cells (HEK293-hLAG-3 stable cell line) (human, UniProt P18627 23-525); assay: FACS, HEK293-hLAG-3, antibody 0 nM
T1 sequence: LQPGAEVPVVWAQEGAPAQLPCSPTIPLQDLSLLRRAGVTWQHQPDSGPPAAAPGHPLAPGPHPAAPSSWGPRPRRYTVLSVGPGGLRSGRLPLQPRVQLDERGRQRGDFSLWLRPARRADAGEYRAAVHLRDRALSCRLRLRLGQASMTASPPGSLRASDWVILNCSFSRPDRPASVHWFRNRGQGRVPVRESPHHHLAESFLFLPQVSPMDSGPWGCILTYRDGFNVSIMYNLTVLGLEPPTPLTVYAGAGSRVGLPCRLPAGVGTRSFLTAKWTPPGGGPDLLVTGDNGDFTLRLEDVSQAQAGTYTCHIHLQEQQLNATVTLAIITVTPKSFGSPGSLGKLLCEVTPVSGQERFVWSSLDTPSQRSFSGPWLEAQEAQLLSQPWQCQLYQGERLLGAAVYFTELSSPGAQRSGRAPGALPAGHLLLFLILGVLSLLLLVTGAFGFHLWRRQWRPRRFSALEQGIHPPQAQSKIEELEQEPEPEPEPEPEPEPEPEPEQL

[2] = biological target: T1, human LAG-3 on cells (HEK293-hLAG-3 …); assay: FACS, HEK293-hLAG-3, antibody 8 nM
[3] = biological target: T1, human LAG-3 on cells (HEK293-hLAG-3 …); assay: FACS, HEK293-hLAG-3, antibody 40 nM
[4] = biological target: T1, human LAG-3 on cells (HEK293-hLAG-3 …); assay: FACS, HEK293-hLAG-3, antibody 1.6 nM
[5] = biological target: T1, human LAG-3 on cells (HEK293-hLAG-3 …); assay: FACS, HEK293-hLAG-3, antibody 0.32 nM
[6] = biological target: T1, human LAG-3 on cells (HEK293-hLAG-3 …); assay: FACS, HEK293-hLAG-3, antibody 0.013 nM
[7] = biological target: T1, human LAG-3 on cells (HEK293-hLAG-3 …); assay: FACS, HEK293-hLAG-3, antibody 0.064 nM

B1: 556F6B8-6 humanized antibody (antibody, V domains shown)
VH: QVQLQESGPGLVKPSETLSLTCTVSGFSIIKYGVHWIRQPPGKGLEWIGVIWRGGITDYNAAFMSRVTISVDTSKNQFSLKLSSVTAADTAVYYCARWDGPLAMDYWGQGTTVTVSS
VL: DIVLTQSPSFLSASVGDRVTITCKASQDVGTTVAWYQQKPGKAPKLLIYWASTRHTGVPSRFSGSGSGTEFTLTISSLQPEDFATYYCQQYSSYPYTFGQGTKLEIK
[1]
  Mean fluorescence intensity: 4
[2]
  Mean fluorescence intensity: 39
[3]
  Mean fluorescence intensity: 50
[4]
  Mean fluorescence intensity: 23
[5]
  Mean fluorescence intensity: 10
[6]
  Mean fluorescence intensity: 4
[7]
  Mean fluorescence intensity: 6

B2: 556F6B8-1 humanized antibody (antibody, V domains shown)
VH: QVQLQESGPGLVKPSETLSLTCTVSGGSISKYGVHWIRQPPGKGLEWIGVIWRGGITDYNAAFMSRVTISVDTSKNQFSLKLSSVTAADTAVYYCARWDGPLAMDYWGQGTTVTVSS
VL: DIQLTQSPSFLSASVGDRVTITCKASQDVGTTVAWYQQKPGKAPKLLIYWASTRHTGVPSRFSGSGSGTEFTLTISSLQPEDFATYYCQQYSSYPYTFGQGTKLEIK
[1]
  Mean fluorescence intensity: 4
[2]
  Mean fluorescence intensity: 19
[3]
  Mean fluorescence intensity: 33
[4]
  Mean fluorescence intensity: 9
[5]
  Mean fluorescence intensity: 5
[6]
  Mean fluorescence intensity: 4
[7]
  Mean fluorescence intensity: 4

B3: 556F6B8-2 humanized antibody (antibody, V domains shown)
VH: QVQLQESGPGLVKPSETLSLTCTVSGFSIIKYGVHWIRQPPGKGLEWIGVIWRGGITDYNAAFMSRVTISVDTSKNQFSLKLSSVTAADTAVYYCARWDGPLAMDYWGQGTTVTVSS
VL: DIQLTQSPSFLSASVGDRVTITCKASQDVGTTVAWYQQKPGKAPKLLIYWASTRHTGVPSRFSGSGSGTEFTLTISSLQPEDFATYYCQQYSSYPYTFGQGTKLEIK
[1]
  Mean fluorescence intensity: 4
[2]
  Mean fluorescence intensity: 37
[3]
  Mean fluorescence intensity: 49
[4]
  Mean fluorescence intensity: 23
[5]
  Mean fluorescence intensity: 10
[6]
  Mean fluorescence intensity: 4
[7]
  Mean fluorescence intensity: 5

B4: 556F6B8-4 humanized antibody (antibody, V domains shown)
VH: RVQLQESGPGLVKPSETLSLTCTVSGFSLIKYGVHWIRQPPGKGLEWIGVIWRGGITDYNAAFMSRVTISKDTSKSQVSLKLSSVTAADTAVYYCAKWDGPLAMDYWGQGTTVTVSS
VL: DIQLTQSPSFLSASVGDRVTITCKASQDVGTTVAWYQQKPGKAPKLLIYWASTRHTGVPSRFSGSGSGTEFTLTISSLQPEDFATYYCQQYSSYPYTFGQGTKLEIK
[1]
  Mean fluorescence intensity: 4
[2]
  Mean fluorescence intensity: 77
[3]
  Mean fluorescence intensity: 82
[4]
  Mean fluorescence intensity: 62
[5]
  Mean fluorescence intensity: 32
[6]
  Mean fluorescence intensity: 7
[7]
  Mean fluorescence intensity: 14

B5: 556F6B8-5 humanized antibody (antibody, V domains shown)
VH: QVQLQESGPGLVKPSETLSLTCTVSGGSISKYGVHWIRQPPGKGLEWIGVIWRGGITDYNAAFMSRVTISVDTSKNQFSLKLSSVTAADTAVYYCARWDGPLAMDYWGQGTTVTVSS
VL: DIVLTQSPSFLSASVGDRVTITCKASQDVGTTVAWYQQKPGKAPKLLIYWASTRHTGVPSRFSGSGSGTEFTLTISSLQPEDFATYYCQQYSSYPYTFGQGTKLEIK
[1]
  Mean fluorescence intensity: 4
[2]
  Mean fluorescence intensity: 16
[3]
  Mean fluorescence intensity: 32
[4]
  Mean fluorescence intensity: 8
[5]
  Mean fluorescence intensity: 5
[6]
  Mean fluorescence intensity: 4
[7]
  Mean fluorescence intensity: 4

B6: 556F6B8-8 humanized antibody (antibody, V domains shown)
VH: RVQLQESGPGLVKPSETLSLTCTVSGFSLIKYGVHWIRQPPGKGLEWIGVIWRGGITDYNAAFMSRVTISKDTSKSQVSLKLSSVTAADTAVYYCAKWDGPLAMDYWGQGTTVTVSS
VL: DIVLTQSPSFLSASVGDRVTITCKASQDVGTTVAWYQQKPGKAPKLLIYWASTRHTGVPSRFSGSGSGTEFTLTISSLQPEDFATYYCQQYSSYPYTFGQGTKLEIK
[1]
  Mean fluorescence intensity: 4
[2]
  Mean fluorescence intensity: 79
[3]
  Mean fluorescence intensity: 83
[4]
  Mean fluorescence intensity: 64
[5]
  Mean fluorescence intensity: 36
[6]
  Mean fluorescence intensity: 8
[7]
  Mean fluorescence intensity: 15

B7: 556F6B8-9 humanized antibody (antibody, V domains shown)
VH: QVQLQESGPGLVKPSETLSLTCTVSGGSISKYGVHWIRQPPGKGLEWIGVIWRGGITDYNAAFMSRVTISVDTSKNQFSLKLSSVTAADTAVYYCARWDGPLAMDYWGQGTTVTVSS
VL: DIVLTQSPSFLSASVGDRVTITCKASQDVGTTVAWYQQKPGKSPKLLIYWASTRHTGVPSRFSGSGSGTEFTLTISSLQPEDFATYYCQQYSSYPYTFGQGTKLEIK
[1]
  Mean fluorescence intensity: 4
[2]
  Mean fluorescence intensity: 18
[3]
  Mean fluorescence intensity: 33
[4]
  Mean fluorescence intensity: 9
[5]
  Mean fluorescence intensity: 5
[6]
  Mean fluorescence intensity: 4
[7]
  Mean fluorescence intensity: 4

B8: 556F6B8-10 humanized antibody (antibody, V domains shown)
VH: QVQLQESGPGLVKPSETLSLTCTVSGFSIIKYGVHWIRQPPGKGLEWIGVIWRGGITDYNAAFMSRVTISVDTSKNQFSLKLSSVTAADTAVYYCARWDGPLAMDYWGQGTTVTVSS
VL: DIVLTQSPSFLSASVGDRVTITCKASQDVGTTVAWYQQKPGKSPKLLIYWASTRHTGVPSRFSGSGSGTEFTLTISSLQPEDFATYYCQQYSSYPYTFGQGTKLEIK
[1]
  Mean fluorescence intensity: 4
[2]
  Mean fluorescence intensity: 44
[3]
  Mean fluorescence intensity: 54
[4]
  Mean fluorescence intensity: 27
[5]
  Mean fluorescence intensity: 11
[6]
  Mean fluorescence intensity: 4
[7]
  Mean fluorescence intensity: 6

B9: 556F6B8-11 humanized antibody (antibody, V domains shown)
VH: QVQLQESGPGLVKPSETLSLTCTVSGFSLIKYGVHWIRQPPGKGLEWIGVIWRGGITDYNAAFMSRVTISKDTSKSQVSLKLSSVTAADTAVYYCARWDGPLAMDYWGQGTTVTVSS
VL: DIVLTQSPSFLSASVGDRVTITCKASQDVGTTVAWYQQKPGKSPKLLIYWASTRHTGVPSRFSGSGSGTEFTLTISSLQPEDFATYYCQQYSSYPYTFGQGTKLEIK
[1]
  Mean fluorescence intensity: 4
[2]
  Mean fluorescence intensity: 97
[3]
  Mean fluorescence intensity: 100
[4]
  Mean fluorescence intensity: 87
[5]
  Mean fluorescence intensity: 51
[6]
  Mean fluorescence intensity: 9
[7]
  Mean fluorescence intensity: 20

B10: 556F6B8-12 humanized antibody (antibody, V domains shown)
VH: RVQLQESGPGLVKPSETLSLTCTVSGFSLIKYGVHWIRQPPGKGLEWIGVIWRGGITDYNAAFMSRVTISKDTSKSQVSLKLSSVTAADTAVYYCAKWDGPLAMDYWGQGTTVTVSS
VL: DIVLTQSPSFLSASVGDRVTITCKASQDVGTTVAWYQQKPGKSPKLLIYWASTRHTGVPSRFSGSGSGTEFTLTISSLQPEDFATYYCQQYSSYPYTFGQGTKLEIK
[1]
  Mean fluorescence intensity: 4
[2]
  Mean fluorescence intensity: 83
[3]
  Mean fluorescence intensity: 87
[4]
  Mean fluorescence intensity: 70
[5]
  Mean fluorescence intensity: 36
[6]
  Mean fluorescence intensity: 8
[7]
  Mean fluorescence intensity: 15

Reference: patent US20210155689A1 (SHANGHAI PHARMAEXPLORER, published 2021)
